Consider five substances from publication doi:10.1101/2022.04.02.486817.

One test has as its target GST-TGN38 (UniProt P19814). The experiment in a line: BLI.
A further test deals with Cμ2 (UniProt P84092). The experiment in a line: ITC.
The target of a further test is AP2 α-appendage (UniProt P17427). The experiment in a line: ITC.
AP2 α-appendage, sequence (P17427 702-938): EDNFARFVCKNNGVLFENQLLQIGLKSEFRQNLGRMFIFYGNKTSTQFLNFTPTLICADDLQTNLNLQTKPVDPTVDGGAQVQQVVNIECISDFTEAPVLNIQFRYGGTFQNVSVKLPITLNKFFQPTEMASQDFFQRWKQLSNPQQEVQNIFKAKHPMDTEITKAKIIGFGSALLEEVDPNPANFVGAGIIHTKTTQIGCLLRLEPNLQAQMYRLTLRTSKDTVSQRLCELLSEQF

AP2:β2FCHO2-N3+C, sequence (P62743 whole entry, looked up, tested part not stated): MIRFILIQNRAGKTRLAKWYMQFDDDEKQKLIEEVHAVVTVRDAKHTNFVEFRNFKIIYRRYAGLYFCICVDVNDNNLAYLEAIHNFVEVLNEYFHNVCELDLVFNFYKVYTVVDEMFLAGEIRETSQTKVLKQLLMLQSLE
AP2:β2FCHO2-N3+C, sequence (P84092 whole entry, looked up, tested part not stated): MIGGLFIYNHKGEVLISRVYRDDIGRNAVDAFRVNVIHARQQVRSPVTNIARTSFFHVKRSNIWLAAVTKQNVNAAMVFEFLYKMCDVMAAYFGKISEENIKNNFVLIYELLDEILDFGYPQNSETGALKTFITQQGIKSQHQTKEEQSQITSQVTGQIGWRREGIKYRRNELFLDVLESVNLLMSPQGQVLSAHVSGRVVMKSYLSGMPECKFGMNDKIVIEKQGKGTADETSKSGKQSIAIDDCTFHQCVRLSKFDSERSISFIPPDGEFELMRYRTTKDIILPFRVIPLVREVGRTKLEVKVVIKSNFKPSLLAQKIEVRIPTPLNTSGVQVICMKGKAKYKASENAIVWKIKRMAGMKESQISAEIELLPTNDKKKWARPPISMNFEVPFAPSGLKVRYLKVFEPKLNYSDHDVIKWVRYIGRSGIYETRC
AP2:β2FCHO2-N3+C, sequence (P18484 whole entry, looked up, tested part not stated): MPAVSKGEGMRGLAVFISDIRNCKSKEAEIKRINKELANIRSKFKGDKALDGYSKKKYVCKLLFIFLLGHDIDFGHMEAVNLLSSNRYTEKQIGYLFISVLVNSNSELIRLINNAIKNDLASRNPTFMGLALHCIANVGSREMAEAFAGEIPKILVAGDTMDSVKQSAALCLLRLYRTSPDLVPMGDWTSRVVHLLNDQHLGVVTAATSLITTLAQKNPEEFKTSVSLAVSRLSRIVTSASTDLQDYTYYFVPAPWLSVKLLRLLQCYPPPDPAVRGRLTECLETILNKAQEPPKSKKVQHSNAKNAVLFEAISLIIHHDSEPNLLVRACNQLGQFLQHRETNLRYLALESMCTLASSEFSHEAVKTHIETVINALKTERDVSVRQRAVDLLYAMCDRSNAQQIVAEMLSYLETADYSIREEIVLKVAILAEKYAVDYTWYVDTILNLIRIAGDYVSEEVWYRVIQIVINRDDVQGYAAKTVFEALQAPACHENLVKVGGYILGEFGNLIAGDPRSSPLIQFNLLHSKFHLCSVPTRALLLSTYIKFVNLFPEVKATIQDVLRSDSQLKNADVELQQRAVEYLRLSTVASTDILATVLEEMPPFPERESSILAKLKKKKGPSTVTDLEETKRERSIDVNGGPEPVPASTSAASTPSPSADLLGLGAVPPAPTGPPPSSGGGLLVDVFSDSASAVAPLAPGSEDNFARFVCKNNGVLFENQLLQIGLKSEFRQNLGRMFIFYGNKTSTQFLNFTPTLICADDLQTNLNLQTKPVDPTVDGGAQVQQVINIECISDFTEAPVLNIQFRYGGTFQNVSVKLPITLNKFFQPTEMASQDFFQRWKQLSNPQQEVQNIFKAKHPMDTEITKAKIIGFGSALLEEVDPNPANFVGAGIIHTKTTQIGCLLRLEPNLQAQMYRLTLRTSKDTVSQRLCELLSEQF
GST-TGN38, sequence (P19814 325-357): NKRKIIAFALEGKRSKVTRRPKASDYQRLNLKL
Cμ2, sequence (P84092 158-435): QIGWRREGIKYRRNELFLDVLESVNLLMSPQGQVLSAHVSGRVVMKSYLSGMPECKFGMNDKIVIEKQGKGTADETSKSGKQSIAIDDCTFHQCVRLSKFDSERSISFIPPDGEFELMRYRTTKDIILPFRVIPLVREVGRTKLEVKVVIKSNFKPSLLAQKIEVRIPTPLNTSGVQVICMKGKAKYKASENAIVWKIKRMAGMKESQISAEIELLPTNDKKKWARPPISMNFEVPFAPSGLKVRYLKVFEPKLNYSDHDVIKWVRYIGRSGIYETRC

As to “AP2:β2FCHO2-N3+C (from UniProt P18484 1-938; P84092 1-435; P62743 1-142) (complex)”, the fold tighter binding than AP2 core in the test with GST-TGN38 worked out at 3 fold. For “FCHO2 N1+N2 E320A+E321A+K326A (domain or fragment)”, the fold reduction of binding against the wild type with Cμ2 amounted to 5 fold. In the case of “FCHO1 C block LEStoAAA (from UniProt O14526 427-448) (peptide)”, the Kd with AP2 α-appendage was more than 500 µM. Same read-out and setting: with “FCHO1 C block FGtoAA (from UniProt O14526 427-448) (peptide)” the figure was more than 500 µM; with “FCHO1 C block PPtoGG (from UniProt O14526 427-448) (peptide)”, more than 500 µM.
